Experimental data taken from patent publication US20250186602A1, “HUMANIZED ANTIBODY THAT BONDS TO EVA1 PROTEIN OR FUNCTIONAL FRAGMENT THEREOF, ANTIBODY-DRUG CONJUGATE AND CHIMERIC ANTIGEN RECEPTOR” (CURED INC., priority 2022, published 2025).

T1: hEva1-mouse Fc (human, UniProt O60487 27-154, limits assumed)
T1 construct: SPR analyte; the '1' is probably the first concentration (1 nM); also called hEva1-mouse Fc1 (so in the source); not shown: mouse Fc
T1 sequence: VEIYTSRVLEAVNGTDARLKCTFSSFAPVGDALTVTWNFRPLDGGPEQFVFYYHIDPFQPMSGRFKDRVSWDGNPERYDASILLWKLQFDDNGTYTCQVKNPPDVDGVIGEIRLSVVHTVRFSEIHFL


System: hEva1-mouse Fc
Assay: Surface plasmon resonance kinetics analysis (BiaCore T200, single-cycle)
Type: binding, human
Conditions: SPR, antibody captured 5 nM, analyte hEva1-mouse Fc 1-250 nM, HBS-EP+ pH 7.4
Procedure: (§1) The dissociation constants and association constants of the humanized antibodies and the like were analyzed by using surface plasmon resonance (SPR, product name: BiaCore T200 (manufactured by GE healthcare)).
Specifically, first, human IgG capture antibodies were immobilized on a CM5 chip by an amine coupling method. This immobilization was conducted in both reference cells and active cells. Then, the kinetics analysis on the anti-Eval antibody and hEva1 was conducted by a single-cycle method using the following measurement conditions.
• Sample compartment temperature: 10° C. • Running buffer: HBS-EP+buffer, pH 7.4 • Capturing molecule: Human IgG antibody, reference & active cells • Ligand: Various antibodies 5 nM, active cells only • Analyte: hEva1-mouse Fc1, 5, 25, 125, 250 nM, reference & active cells • Regeneration buffer: 3M MgCl2, reference & active cells • 3 cycles of Blanks (Analyte zero concentration)

| Molecule | ka [M⁻¹ s⁻¹] | kd [s⁻¹] |
| --- | --- | --- |
| H1-L4: humanized B2E5-48 IgG1, VH H1 (SEQ ID NO: 15), VL L4 (SEQ ID NO: 8) (antibody, V domains shown, Variable Region of Heavy Chain 1 (Humanized B2E5-48); Variable Region of Light Chain 4 (Humanized B2E5-48)) VH: QVQLVQSGAEVKKPGASVKVSCKASGYTFTNYWMHWVRQAPGQGLEWIGEINPTNGGTDYNEKFQGRVTLTVDKSSSTAYMELSSLRSEDTAVYYCTIYTTALDYWGQGTLVTVSS VL: DIQLTQSPSFLSASVGDRVTITCRASSSVGYMYWYQQKPGKAPKPLIYVTSNLASGVPSRFSGSGSGTEYTLTISSLQPEDFATYYCQQWSSNPPTFGQGTKLEIK | 17470 | 0.009313 |
| H2-L3: humanized B2E5-48 IgG1, VH H2 (SEQ ID NO: 13), VL L3 (SEQ ID NO: 10) (antibody, V domains shown, Variable Region of Heavy Chain 2 (Humanized B2E5-48); Variable Region of Light Chain 3 (Humanized B2E5-48)) VH: QVQLVQSGAEVKKPGASVKVSCKASGYTFTNYWMHWVRQAPGQGLEWMGEINPTNGGTDYNEKFQGRVTMTVDKSTSTAYMELSSLRSEDTAVYYCTIYTTALDYWGQGTLVTVSS VL: QIQLTQSPSFLSASVGDRVTITCRASSSVGYMYWYQQKPGKAPKPLIYVTSNLASGVPSRFSGSGSGTEYTLTISSLQPEDFATYYCQQWSSNPPTFGQGTKLEIK | 20710 | 0.008858 |
| H2-L4: humanized B2E5-48 IgG1, VH H2 (SEQ ID NO: 13), VL L4 (SEQ ID NO: 8) (antibody, V domains shown, Variable Region of Heavy Chain 2 (Humanized B2E5-48); Variable Region of Light Chain 4 (Humanized B2E5-48)) VH: QVQLVQSGAEVKKPGASVKVSCKASGYTFTNYWMHWVRQAPGQGLEWMGEINPTNGGTDYNEKFQGRVTMTVDKSTSTAYMELSSLRSEDTAVYYCTIYTTALDYWGQGTLVTVSS VL: DIQLTQSPSFLSASVGDRVTITCRASSSVGYMYWYQQKPGKAPKPLIYVTSNLASGVPSRFSGSGSGTEYTLTISSLQPEDFATYYCQQWSSNPPTFGQGTKLEIK | 17200 | 0.009101 |

Target: T1, hEva1-mouse Fc
Assay: SPR (BiaCore T200), single-cycle kinetics; antibody captured by anti-human IgG on CM5 chip, hEva1-mouse Fc as analyte
Conditions: not given
Procedure: as §1
Specifically, first, human IgG capture antibodies were immobilized on a CM5 chip by an amine coupling method. […] Then, the kinetics analysis on the anti-Eval antibody and hEva1 was conducted by a single-cycle method using the following measurement conditions.

| Molecule | Kd [nM] | koff [s⁻¹] | kon [M⁻¹ s⁻¹] |
| --- | --- | --- | --- |
| humanized B2E5-48 antibody H2-L2 (antibody, human IgG1, V domains shown, Human IgG1 heavy chain and human kappa light chain vectors; made in HEK293T cells; also called B2E5-H2-L2) VH: QVQLVQSGAEVKKPGASVKVSCKASGYTFTNYWMHWVRQAPGQGLEWMGEINPTNGGTDYNEKFQGRVTMTVDKSTSTAYMELSSLRSEDTAVYYCTIYTTALDYWGQGTLVTVSS VL: EIVLTQSPATLSLSPGERATLSCRASSSVGYMYWYQQKPGQAPRPLIYVTSNRATGIPARFSGSGSGTDYTLTISSLEPEDFAVYYCQQWSSNPPTFGQGTKLEIK | 467 | 0.0092 | 19700 |
| humanized B2E5-48 antibody H2-L3 (antibody, human IgG1, V domains shown, Human IgG1 heavy chain and human kappa light chain vectors; made in HEK293T cells) VH: QVQLVQSGAEVKKPGASVKVSCKASGYTFTNYWMHWVRQAPGQGLEWMGEINPTNGGTDYNEKFQGRVTMTVDKSTSTAYMELSSLRSEDTAVYYCTIYTTALDYWGQGTLVTVSS VL: QIQLTQSPSFLSASVGDRVTITCRASSSVGYMYWYQQKPGKAPKPLIYVTSNLASGVPSRFSGSGSGTEYTLTISSLQPEDFATYYCQQWSSNPPTFGQGTKLEIK | 428 | 0.00886 | 20700 |
| humanized B2E5-48 antibody H2-L4 (antibody, human IgG1, V domains shown, Human IgG1 heavy chain and human kappa light chain vectors; made in HEK293T cells) VH: QVQLVQSGAEVKKPGASVKVSCKASGYTFTNYWMHWVRQAPGQGLEWMGEINPTNGGTDYNEKFQGRVTMTVDKSTSTAYMELSSLRSEDTAVYYCTIYTTALDYWGQGTLVTVSS VL: DIQLTQSPSFLSASVGDRVTITCRASSSVGYMYWYQQKPGKAPKPLIYVTSNLASGVPSRFSGSGSGTEYTLTISSLQPEDFATYYCQQWSSNPPTFGQGTKLEIK | 529 | 0.0091 | 17200 |
| humanized B2E5-48 antibody H3-L2 (antibody, human IgG1, V domains shown, Human IgG1 heavy chain and human kappa light chain vectors; made in HEK293T cells) VH: QVQLVQSGSELKKPGASVKVSCKASGYTFTNYWMHWVRQAPGQGLEWIGEINPTNGGTDYNEGFTGRFVLSVDKSSSTAYLQISSLKAEDTAVYYCTIYTTALDYWGQGTLVTVSS VL: EIVLTQSPATLSLSPGERATLSCRASSSVGYMYWYQQKPGQAPRPLIYVTSNRATGIPARFSGSGSGTDYTLTISSLEPEDFAVYYCQQWSSNPPTFGQGTKLEIK | 787 | 0.0132 | 16800 |
| humanized B2E5-48 antibody H4-L2 (antibody, human IgG1, V domains shown, Human IgG1 heavy chain and human kappa light chain vectors; made in HEK293T cells) VH: QVQLVQSGSELKKPGASVKVSCKASGYTFTNYWMHWVRQAPGQGLEWMGEINPTNGGTDYNEGFTGRFVFSVDKSVSTAYLQISSLKAEDTAVYYCTIYTTALDYWGQGTLVTVSS VL: EIVLTQSPATLSLSPGERATLSCRASSSVGYMYWYQQKPGQAPRPLIYVTSNRATGIPARFSGSGSGTDYTLTISSLEPEDFAVYYCQQWSSNPPTFGQGTKLEIK | 768 | 0.0146 | 19000 |
| humanized B2E5-48 antibody H3-L4 (antibody, human IgG1, V domains shown, Human IgG1 heavy chain and human kappa light chain vectors; made in HEK293T cells) VH: QVQLVQSGSELKKPGASVKVSCKASGYTFTNYWMHWVRQAPGQGLEWIGEINPTNGGTDYNEGFTGRFVLSVDKSSSTAYLQISSLKAEDTAVYYCTIYTTALDYWGQGTLVTVSS VL: DIQLTQSPSFLSASVGDRVTITCRASSSVGYMYWYQQKPGKAPKPLIYVTSNLASGVPSRFSGSGSGTEYTLTISSLQPEDFATYYCQQWSSNPPTFGQGTKLEIK | 873 | 0.0138 | 15800 |
| humanized B2E5-48 antibody H1-L4 (antibody, human IgG1, V domains shown, Human IgG1 heavy chain and human kappa light chain vectors; made in HEK293T cells) VH: QVQLVQSGAEVKKPGASVKVSCKASGYTFTNYWMHWVRQAPGQGLEWIGEINPTNGGTDYNEKFQGRVTLTVDKSSSTAYMELSSLRSEDTAVYYCTIYTTALDYWGQGTLVTVSS VL: DIQLTQSPSFLSASVGDRVTITCRASSSVGYMYWYQQKPGKAPKPLIYVTSNLASGVPSRFSGSGSGTEYTLTISSLQPEDFATYYCQQWSSNPPTFGQGTKLEIK | 533 | 0.00931 | 17500 |
| humanized B2E5-48 antibody H3-L3 (antibody, human IgG1, V domains shown, Human IgG1 heavy chain and human kappa light chain vectors; made in HEK293T cells) VH: QVQLVQSGSELKKPGASVKVSCKASGYTFTNYWMHWVRQAPGQGLEWIGEINPTNGGTDYNEGFTGRFVLSVDKSSSTAYLQISSLKAEDTAVYYCTIYTTALDYWGQGTLVTVSS VL: QIQLTQSPSFLSASVGDRVTITCRASSSVGYMYWYQQKPGKAPKPLIYVTSNLASGVPSRFSGSGSGTEYTLTISSLQPEDFATYYCQQWSSNPPTFGQGTKLEIK | 835 | 0.0125 | 15000 |
| humanized B2E5-48 antibody H4-L3 (antibody, human IgG1, V domains shown, Human IgG1 heavy chain and human kappa light chain vectors; made in HEK293T cells) VH: QVQLVQSGSELKKPGASVKVSCKASGYTFTNYWMHWVRQAPGQGLEWMGEINPTNGGTDYNEGFTGRFVFSVDKSVSTAYLQISSLKAEDTAVYYCTIYTTALDYWGQGTLVTVSS VL: QIQLTQSPSFLSASVGDRVTITCRASSSVGYMYWYQQKPGKAPKPLIYVTSNLASGVPSRFSGSGSGTEYTLTISSLQPEDFATYYCQQWSSNPPTFGQGTKLEIK | 877 | 0.0136 | 15500 |
| humanized B2E5-48 antibody H4-L4 (antibody, human IgG1, V domains shown, Human IgG1 heavy chain and human kappa light chain vectors; made in HEK293T cells) VH: QVQLVQSGSELKKPGASVKVSCKASGYTFTNYWMHWVRQAPGQGLEWMGEINPTNGGTDYNEGFTGRFVFSVDKSVSTAYLQISSLKAEDTAVYYCTIYTTALDYWGQGTLVTVSS VL: DIQLTQSPSFLSASVGDRVTITCRASSSVGYMYWYQQKPGKAPKPLIYVTSNLASGVPSRFSGSGSGTEYTLTISSLQPEDFATYYCQQWSSNPPTFGQGTKLEIK | 994 | 0.0152 | 15300 |
